Results published in patent publication US20110293593A1, “SIVA 2 STABILIZATION” (YEDA RESEARCH AND DEVELOPMENT CO., LTD., priority 2008, published 2011).

Experiments:
[1] = biological target: T1, TRAF2 (Homo sapiens, UniProt Q12933); experiment: In-vitro protein-binding assay, TRAF2; conditions: FLAG-TRAF2 incubated with GST-SIVA2
T1 construct: made in house; host or cells: HEK293T (FLAG-TRAF2); bacteria, pGEX2T (GST-SIVA2)
T1 sequence (Q12933 1-501): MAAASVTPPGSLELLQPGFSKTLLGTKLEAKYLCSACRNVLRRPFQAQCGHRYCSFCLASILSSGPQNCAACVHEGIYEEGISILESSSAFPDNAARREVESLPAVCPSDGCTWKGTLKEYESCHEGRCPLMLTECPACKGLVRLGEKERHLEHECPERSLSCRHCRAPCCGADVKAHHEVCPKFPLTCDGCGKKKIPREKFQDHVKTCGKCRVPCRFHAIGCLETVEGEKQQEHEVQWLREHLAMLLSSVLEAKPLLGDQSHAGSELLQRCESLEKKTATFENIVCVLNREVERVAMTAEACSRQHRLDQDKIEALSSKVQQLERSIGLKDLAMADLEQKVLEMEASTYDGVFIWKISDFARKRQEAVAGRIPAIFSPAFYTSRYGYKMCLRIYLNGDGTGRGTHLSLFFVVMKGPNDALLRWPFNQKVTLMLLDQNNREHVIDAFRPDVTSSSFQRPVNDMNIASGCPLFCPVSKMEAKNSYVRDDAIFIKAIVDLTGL
Protocol: (§1) (A) Transfected SIVA2 binds to endogenous TRAF2. FLAG-SIVA2 or HIS-SIVA2 (control) was transfected into HEK293T cells. SIVA2 was immunoprecipitated using anti-FLAG M2 beads and the co-precipitated cellular TRAF2 was assayed by western blotting. The total cellular level of TRAF2 is shown at the bottom. (B) SIVA2 binds TRAF2 inducibly. Treatment of the cells EcR293-CD27-SIVA2 with ponasterone for 2 h to induce SIVA2, and treated with CD70 as indicated was followed by immunoprecipitation of TRAF2. […] FLAG-tagged TRAF2 was immunoprecipitated from transfected HEK293T cells with anti-FLAG M2 beads, eluted from the beads using FLAG peptide and incubated with GST-SIVA2 or its mutant, and then subjected to immunoprecipitation and western blotting as indicated. […] Left panel: Binding in vitro. Recombinant cIAP1 was incubated with GST-SIVA2 or its mutant. Right and bottom panels depict binding in transfected HEK293T cells. Right panel: Cells were transfected with HIS-SIVA2, HIS-SIVA2 (1-58), or FLAG-TRAF2. After 28 h the endogenous cIAP1 was immunoprecipitated. MG132 was applied for the last 6 h of incubation. Bottom panel: Cells were transfected with FLAG-SIVA2, FLAG-SIVA2 (1-58) or, as a specificity control, FLAG-GST-BR3-ICD* (in which the BAFF receptor intracellular domain is mutated at its TRAF3-binding region (PVPAT>AVAAA)). […] N/A, not analyzed. […]

[2] = biological target: T2, cIAP1 (Homo sapiens, UniProt Q13490); experiment: In-vitro protein-binding assay, cIAP1; conditions: recombinant cIAP1 incubated with GST-SIVA2
T2 sequence (Q13490 whole entry, species assumed): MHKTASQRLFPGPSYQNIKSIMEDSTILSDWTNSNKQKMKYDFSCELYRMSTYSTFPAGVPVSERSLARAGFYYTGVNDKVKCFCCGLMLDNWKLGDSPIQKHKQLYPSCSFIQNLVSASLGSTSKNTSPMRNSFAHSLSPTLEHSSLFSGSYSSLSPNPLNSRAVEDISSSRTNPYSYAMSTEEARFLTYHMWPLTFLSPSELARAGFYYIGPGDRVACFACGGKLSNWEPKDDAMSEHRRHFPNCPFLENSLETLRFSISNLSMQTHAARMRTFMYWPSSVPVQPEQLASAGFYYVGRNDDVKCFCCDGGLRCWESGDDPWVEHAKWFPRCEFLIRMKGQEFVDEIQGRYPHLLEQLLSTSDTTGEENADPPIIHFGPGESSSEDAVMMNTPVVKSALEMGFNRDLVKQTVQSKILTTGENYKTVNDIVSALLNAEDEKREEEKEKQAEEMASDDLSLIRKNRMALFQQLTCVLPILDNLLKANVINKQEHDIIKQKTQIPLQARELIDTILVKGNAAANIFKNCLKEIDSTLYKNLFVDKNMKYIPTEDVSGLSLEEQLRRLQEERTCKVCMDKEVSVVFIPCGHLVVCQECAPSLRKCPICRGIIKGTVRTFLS
Protocol: as §1

[3] = biological target: T2, cIAP1; experiment: In-vitro substrate ubiquitination assay, cIAP1; assay type: biochemical; conditions: recombinant cIAP1, E2 UbCH5b or Ubc13/Uev1a
Protocol: FIG. 9 SIVA2 mediates ubquitination of both TRAF2 and cIAP1. (A) cIAP-1 is required for SIVA2-mediated TRAF2 ubiquitination in cells. HEK293T cells were transfected with cIAP1 siRNA and, 24 h later, with the other plasmids as indicated. The extent of ubiquitination of the TRAF2 immunoprecipitated from the lysates of these cells, as well as the cellular levels of the endogenous cIAP1 and cIAP2 and the transfected ubiquitin, were determined by western blot analyses. (B) SIVA2, but not SIVA1, enhances K48-linked polyubiquitination of TRAF2 in cells. HEK293T cells grown in 90-mm plates were transfected by the calcium phosphate method with 4 μg of FLAG-TRAF2 (C34A), together with […] of HA-ubiquitin mutant plasmids and 6 μg of HIS-SIVA2 or HIS-SIVA2 (C73A) or HIS-SIVA1. The cells were lysed 24 h after transfection and TRAF2 was precipitated and analyzed as indicated. Wild-type SIVA2 and SIVA1, as well as SIVA2 (C73A) mutant, co-precipitated with TRAF2 (bottom panel). […]
In-vitro ubiquitination. […] Supernatants of the reaction were analyzed for free polyubiquitin chains formed in solution. For assay of self-ubiquitination of SIVA2 the glutathione beads were washed three times with a buffer containing 20 mM HEPES pH 7.6, 250 mM NaCl, 1 mM DTT, 1% Triton X-100 and Complete Protease Inhibitor Cocktail, boiled with LDS sample buffer (Invitrogen), and analyzed by western blotting. […]

binding of SIVA2 to TRAF2 in vitro [1]: binds TRAF2 in vitro | binding of SIVA2 to cIAP1 [2]: binds at its N-terminus to cIAP1 | ubiquitination of cIAP1 [3]: effectively ubiquitinated
B1: SIVA2: short splice variant of SIVA, E3 ligase (NM—021709, SEQ ID NO:11); recombinant GST fusion in in-vitro tests (protein)
chain: MPKRSCPFADVAPLQLKVRVSQRELSRGVCAERYSQEVFDPSGVASIACSSCVRAVDGKAVCGQCERALCGQCVRTCWGCGSVACTLCGLVDCSDMYEKVLCTSCAMFET
modifications: left off: a dimerising Fc or GST; large carriers; small tags and cut ends
notes: recombinant GST fusion in in-vitro tests
